In patent publication US20170008955A1 (CNJ, published 2017):
Numbering of substitutions follows the chain as printed.

T1: Ovalbumin (UniProt P01012 2-386)
T1 sequence (looked up): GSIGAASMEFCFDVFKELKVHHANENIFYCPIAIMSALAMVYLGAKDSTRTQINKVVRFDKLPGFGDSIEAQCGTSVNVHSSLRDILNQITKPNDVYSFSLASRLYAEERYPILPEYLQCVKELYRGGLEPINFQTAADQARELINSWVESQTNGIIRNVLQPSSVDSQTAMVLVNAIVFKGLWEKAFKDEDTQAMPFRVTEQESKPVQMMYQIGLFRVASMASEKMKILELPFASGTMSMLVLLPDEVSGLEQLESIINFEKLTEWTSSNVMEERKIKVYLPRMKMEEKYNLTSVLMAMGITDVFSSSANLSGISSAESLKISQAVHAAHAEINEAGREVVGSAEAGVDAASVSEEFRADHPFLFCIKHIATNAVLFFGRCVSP

B1: hu5E3-IgG1 (antibody, V domains shown)
VH: QVQLQQSGPEVKKPGASVKISCKASGYIFTSYYIQWVIHAPGQGLEWIGWIYPGNVNTKYNEKFKGKATLTADKSSSTAYMELSSLTSEDTAVYFCARMDYEAHYWGQGTTVTVSS
VL: DIQMTQSPSSLSASVGDRVTITCRASQEISGYLTWLQQKPEGAIKRLIYAASTLDSGVPKRFSGSRSGSDYSLTISSLQPEDFATYNCLQYANYPRTFGGGTKLEIK
notes: human IgG1/kappa; also called humanized 5E3 IgG1; IHA variant
B2: hu5E3-IgG4 (antibody, V domains shown)
VH: B1 VH
VL: B1 VL
notes: human IgG4/kappa; also called humanized 5E3 IgG4
B3: hu5E3-IgG2 (antibody, V domains shown)
VH: B1 VH
VL: B1 VL
notes: human IgG2/kappa; also called humanized 5E3 IgG2
B4: murine monoclonal antibody 5E3 (antibody, V domains shown)
VH: B1 VH with V11L, K12V, K19R, A40R, E82Q, S85R, T91S, V112L
VL: B1 VL with V15L, D17E, T20S, I21L, E41D, A43T, Q79E, P80S, T85D
notes: mouse antibody of the 5E3 hybridoma; also called murine 5E3; m5E3
B5: rehu5E3-IgG4 (antibody, V domains shown)
VH: B1 VH with K12V, T87R, T91S, T111L
VL: B1 VL with V15L, I21L, G42K, S72T, T85D
notes: human IgG4/kappa; also called IgG4 rehu version

Columns and labels:
Aβ42 oligomers [1] = molecular target: T2, Aβ42 oligomers (UniProt P05067 672-713); assay: Biacore (SPR), Aβ oligomer preparation AβO1' (HQ AβO1'); lower end of the range
T2 construct: domain: Aβ42; immobilized preparation containing monomers, low and high molecular weight oligomers; also called Amyloid beta oligomers; Aβ oligomers
Method: (§1) Using a Biacore™ 3000, Aβ42 oligomers were immobilized (containing monomers, low and high molecular weight oligomers) and BSA (reference surface) on 4 separate flow cells of a biosensorchip. Murine 5E3 or humanized 5E3 IgG1, IgG2, and IgG4 were then diluted, sequentially injected over the different immobilized peptides and antibody binding monitored in real time. Binding data was collected by sequentially injecting buffer blanks, 1/10 dilutions of m5E3 or 1 uM dilutions of hu5E3 control over separate flow cells immobilized with BSA or Aβ42 oligomer on another biosensor chip at a flow rate of 10 μl/minute. Association was allowed for 200 seconds, followed by dissociation for 500 seconds and binding responses collected 10 seconds before the end of the […]. All binding responses were double-referenced by subtracting buffer blanks and BSA reference surface binding.
(§2) Results: As shown in FIG. 9A and FIG. 9B, the humanized 5E3 isotypes bound to the Aβ42 oligomer preparation. Affinity constants were determined for hu5E3 IgG1 Aβ42 oligomer preparations.

Aβ42 oligomers [2] = molecular target: T2, Aβ42 oligomers; assay: Biacore (SPR), Aβ oligomer preparation AβO1 (HQ AβO1); upper end of the range
Method: as §1, §2

Aβ42 oligomers [3] = molecular target: T2, Aβ42 oligomers; assay: Biacore (SPR), Aβ oligomer preparation AβO1 (HQ AβO1); lower end of the range
Method: as §1, §2

cSNK:BSA conjugate [4] = molecular target: T3, cSNK:BSA conjugate (bovine, head-to-tail cyclized; conjugated to BSA carrier); assay: BLI 2:1 fit, site 2 (kon2); 25 nM row
T3 construct: also called BSA-cSNK
Method: (§3) Biolayer interferometry (Octet […], ForteBio) was used to qualitatively/quantitatively assess the interactions between humanized versions of 5E3 and cSNK:BSA conjugate. […] MAbs were loaded onto sensors and then washed in PBST. Each sensor was associated with one of several cSNK:BSA standards (100 nM to 0 nM) and then washed in PBST. Data was processed statistically using ForteBio Data Analysis software to determine the strength of antigen-antibody binding (KD). For each mAb analyzed, a 2:1 model provided the “best fit”.

cSNK:BSA conjugate [5] = molecular target: T3, cSNK:BSA conjugate; assay: BLI 2:1 fit, site 2 (kdis2); 12.5 nM row
Method: as §3

Ovalbumin [6] = molecular target: T1, Ovalbumin; assay: Western blot of BSA, BSA-cSNK and ovalbumin probed with hu5E3-IgG1
cSNK:BSA conjugate [7] = molecular target: T3, cSNK:BSA conjugate; assay: BLI (Octet), KD2; unlabelled reference row, taken as hu5E3
cSNK:BSA conjugate [8] = molecular target: T3, cSNK:BSA conjugate; assay: BLI 2:1 fit, site 2 (kdis2); 25 nM row
Method: as §3

cSNK:BSA conjugate [9] = molecular target: T3, cSNK:BSA conjugate; assay: BLI 2:1 fit, site 2 (KD2); 3.13 nM row
Method: as §3

cSNK:BSA conjugate [10] = molecular target: T3, cSNK:BSA conjugate; assay: BLI 2:1 fit, site 2 (kdis2); 3.13 nM row
Method: as §3

cSNK:BSA conjugate [11] = molecular target: T3, cSNK:BSA conjugate; assay: BLI 2:1 fit, site 2 (kon2); 100 nM row
Method: as §3

Ovalbumin [12] = molecular target: T1, Ovalbumin; assay: Western immunoblot, FIGS. 3A-D
Method: (§4) A 4-12% gradient SDS-PAGE gel was run with cSNK-BSA. The gel was then transferred to a nitrocellulose membrane. The next day the mAbs (1° Ab) were diluted to 2 μg/ml to 5 μg/ml depending on the antibody, and used to probe the membrane at room temperature (RT). The membranes were then probed with anti-mouse IgG-HRP (2° Ab).

cSNK:BSA conjugate [13] = molecular target: T3, cSNK:BSA conjugate; assay: BLI 2:1 fit, site 2 (kdis2); 100 nM row
Method: as §3

Ovalbumin [14] = molecular target: T1, Ovalbumin; assay: Western blot of BSA, BSA-cSNK and ovalbumin probed with m5E3
Method: as §4

cSNK:BSA conjugate [15] = molecular target: T3, cSNK:BSA conjugate; assay: BLI (Octet RED96), 2:1 kinetics, KD2, summary table; KD2, summary table
Method: as §3
Table 7 summarizes the affinity constants of humanized 5E3 IgG1, IgG2 and IgG4 constructs. The KD ranges were determined using 2:1 kinetics of binding of analyte (BSA-cSNK) in solution to two different binding sites on the surface (immobilized bivalent, monospecific 5E3) in comparison to murine 5E3 using biolayer interferometry (Octet RED96).

cSNK:BSA conjugate [16] = molecular target: T3, cSNK:BSA conjugate; assay: BLI 2:1 fit, site 1 (KD1); 1.56 nM row
Method: as §3

cSNK:BSA conjugate [17] = molecular target: T3, cSNK:BSA conjugate; assay: BLI 2:1 fit, site 1 (KD1); 3.13 nM row
Method: as §3

cSNK:BSA conjugate [18] = molecular target: T3, cSNK:BSA conjugate; assay: BLI 2:1 fit, site 1 (KD1); 6.25 nM row
Method: as §3

T2 sequence (P05067 672-713 limits assumed): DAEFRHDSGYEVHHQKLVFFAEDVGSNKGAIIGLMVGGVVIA
T3 sequence (P02769 25-607 limits assumed): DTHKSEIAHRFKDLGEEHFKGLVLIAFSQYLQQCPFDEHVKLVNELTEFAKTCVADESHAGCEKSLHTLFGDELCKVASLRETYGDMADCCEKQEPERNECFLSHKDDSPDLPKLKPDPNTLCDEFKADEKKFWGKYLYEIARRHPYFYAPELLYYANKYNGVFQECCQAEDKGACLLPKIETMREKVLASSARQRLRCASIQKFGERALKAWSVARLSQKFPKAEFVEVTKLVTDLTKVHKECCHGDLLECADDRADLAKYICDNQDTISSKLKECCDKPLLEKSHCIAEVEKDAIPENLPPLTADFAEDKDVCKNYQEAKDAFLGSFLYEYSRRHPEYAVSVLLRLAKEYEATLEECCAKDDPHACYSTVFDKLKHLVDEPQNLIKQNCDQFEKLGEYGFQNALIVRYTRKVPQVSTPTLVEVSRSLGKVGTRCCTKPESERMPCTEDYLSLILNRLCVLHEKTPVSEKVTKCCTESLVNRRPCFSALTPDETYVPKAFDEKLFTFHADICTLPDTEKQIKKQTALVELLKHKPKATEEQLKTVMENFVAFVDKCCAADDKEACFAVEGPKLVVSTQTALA

Row | Binder | Kd (Aβ42 oligomers [1]) | Kd (Aβ42 oligomers [2]) | Kd (Aβ42 oligomers [3]) | kon (cSNK:BSA conjugate [4]) | koff (cSNK:BSA conjugate [5]) | binding result (Ovalbumin [6]) | Kd (cSNK:BSA conjugate [7]) | koff (cSNK:BSA conjugate [8]) | Kd (cSNK:BSA conjugate [9]) | koff (cSNK:BSA conjugate [10]) | kon (cSNK:BSA conjugate [11]) | binding result (Ovalbumin [12]) | koff (cSNK:BSA conjugate [13]) | binding result (Ovalbumin [14]) | Kd (cSNK:BSA conjugate [15]) | Kd (cSNK:BSA conjugate [16]) | Kd (cSNK:BSA conjugate [17]) | Kd (cSNK:BSA conjugate [18])
1 | B1 | ≥ 34 µM | ≤ 3290 µM | ≥ 182 µM | 6.56e+06 M⁻¹ s⁻¹ | 0.012 s⁻¹ | no binding | 0.0151 µM | 0.012 s⁻¹ | 0.00182 µM | 0.012 s⁻¹ | – | – | – | – | – | – | – | –
2 | B2 | – | – | – | 7.52e+06 M⁻¹ s⁻¹ | 0.0229 s⁻¹ | – | – | 0.0229 s⁻¹ | 0.00304 µM | 0.0229 s⁻¹ | 7.52e+06 M⁻¹ s⁻¹ | no binding | 0.0229 s⁻¹ | – | – | – | – | –
3 | B3 | – | – | – | 5.28e+06 M⁻¹ s⁻¹ | 0.0338 s⁻¹ | – | – | 0.0338 s⁻¹ | 0.00639 µM | 0.0338 s⁻¹ | 5.28e+06 M⁻¹ s⁻¹ | no binding | 0.0338 s⁻¹ | – | – | – | – | –
4 | B4 | – | – | – | 1.42e+07 M⁻¹ s⁻¹ | 0.0226 s⁻¹ | – | – | 0.0226 s⁻¹ | 0.00159 µM | 0.0226 s⁻¹ | 1.42e+07 M⁻¹ s⁻¹ | – | 0.0226 s⁻¹ | no binding | 0.00159 µM | – | – | –
5 | B5 | – | – | – | 4.44e+06 M⁻¹ s⁻¹ | 0.0175 s⁻¹ | – | – | 0.0175 s⁻¹ | 0.00394 µM | 0.0175 s⁻¹ | 4.44e+06 M⁻¹ s⁻¹ | – | 0.0175 s⁻¹ | – | – | 0.000557 µM | 0.000557 µM | 0.000557 µM
